Reference: patent publication US20240294646A1

Tests used:
C1q (human) [1] = target: C1q (human) (UniProt P02745); test: C1q ELISA, antibody coated
C1q (human) [2] = target: C1q (human) (UniProt P02745); test: ELISA; antibody coated, human C1q added, signal as % of WT
FcγRIIaR [3] = target: FcγRIIaR (UniProt P12318); test: SPR; trastuzumab FSA variant against FSA WT v21653
FcγRIIb [4] = target: FcγRIIb (UniProt P31994); test: SPR; trastuzumab FSA variant against FSA WT v21653
Target sequence in this assay (P31994 43-217): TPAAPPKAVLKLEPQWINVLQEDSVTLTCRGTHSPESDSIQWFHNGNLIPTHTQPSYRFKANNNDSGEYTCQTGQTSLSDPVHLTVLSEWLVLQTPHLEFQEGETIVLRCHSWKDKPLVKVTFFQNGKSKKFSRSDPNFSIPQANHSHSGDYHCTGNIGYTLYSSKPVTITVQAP

FcγRIIb [5] = target: FcγRIIb (UniProt P31994); test: SPR; ratio of IIb-fold to IIaR-fold, FcγRIIaR as comparison receptor
Target sequence in this assay (P31994 43-217): as above

FcγRIIaR [6] = target: FcγRIIaR (UniProt P12318); test: SPR (Protocol 1), one-armed antibody captured on HER2, receptor as analyte; fold over wild-type
FcγRIIb [7] = target: FcγRIIb (UniProt P31994); test: as above
Target sequence in this assay (P31994 43-217 limits assumed): as the sequence (P31994 43-217) above

FcγRIIb [8] = target: FcγRIIb (UniProt P31994); test: SPR (Protocol 1); IIb-Fold over IIaR-Fold
Target sequence in this assay (P31994 43-217 limits assumed): as the sequence (P31994 43-217) above

FcγRIIaR, sequence (P12318 34-217): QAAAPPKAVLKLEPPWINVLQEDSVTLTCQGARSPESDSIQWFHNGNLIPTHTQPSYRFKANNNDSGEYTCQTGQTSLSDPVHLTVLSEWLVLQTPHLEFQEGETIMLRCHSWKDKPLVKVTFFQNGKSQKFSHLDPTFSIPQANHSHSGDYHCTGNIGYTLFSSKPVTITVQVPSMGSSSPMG
C1q (human), sequence (P02745 23-245 limits assumed, chain 1 of 3): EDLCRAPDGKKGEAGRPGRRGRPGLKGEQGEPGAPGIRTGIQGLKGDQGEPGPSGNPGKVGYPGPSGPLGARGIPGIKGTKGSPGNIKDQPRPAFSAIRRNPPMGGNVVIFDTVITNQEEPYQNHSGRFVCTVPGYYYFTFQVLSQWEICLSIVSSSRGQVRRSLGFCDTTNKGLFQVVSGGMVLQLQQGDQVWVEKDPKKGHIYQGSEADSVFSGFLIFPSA
C1q (human), sequence (P02746 28-253 limits assumed, chain 2 of 3, further chain): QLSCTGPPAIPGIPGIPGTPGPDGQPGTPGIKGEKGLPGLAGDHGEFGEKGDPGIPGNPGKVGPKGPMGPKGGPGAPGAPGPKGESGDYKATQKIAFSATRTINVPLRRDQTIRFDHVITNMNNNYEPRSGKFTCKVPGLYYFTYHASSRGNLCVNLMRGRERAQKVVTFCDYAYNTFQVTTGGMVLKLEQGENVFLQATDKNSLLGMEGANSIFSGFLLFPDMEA
C1q (human), sequence (P02747 29-245 limits assumed, chain 3 of 3, further chain): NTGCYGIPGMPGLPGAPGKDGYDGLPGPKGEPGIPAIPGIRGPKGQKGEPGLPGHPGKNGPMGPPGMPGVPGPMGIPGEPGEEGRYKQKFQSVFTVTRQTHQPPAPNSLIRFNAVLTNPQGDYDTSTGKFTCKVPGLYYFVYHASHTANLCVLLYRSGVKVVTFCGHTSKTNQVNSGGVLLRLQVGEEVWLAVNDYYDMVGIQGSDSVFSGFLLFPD

Q: For “anti-CD40 (Chi Lob 7/4) full-size antibody, Fc negative variant (L234A_L235A_D265S)”, which C1q - Variant Binding Relative to WT (%) (C1q (human) [1]) is on record?
A: 0%

Q: With “Variant 32276 (trastuzumab FSA; chain A P329V_strat2, chain B G237L_strat2) (antibody)” as the substance, how does the C1q Binding (% WT) (C1q (human) [2]) read?
A: 3 % WT

Q: And the IIaR-fold (fold change in affinity over wild-type) (FcγRIIaR [3])?
A: 4 fold over WT

Q: What about the IIb-fold (fold change in affinity over wild-type) (FcγRIIb [4]) of the same substance?
A: 94 fold over WT

Q: What about the IIb Selectivity (IIb-Fold/IIaR-Fold) (FcγRIIb [5]) of the same substance?
A: 24

Q: Which C1q Concentration at Onset of Binding (C1q (human) [1]) does the source give for “anti-CD40 (Chi Lob 7/4) full-size antibody, wild-type CH2 (variant 21653)” here?
A: 0.41 nM

Q: And the EC50 (C1q (human) [1])?
A: 1490 pM

Q: What does the source list for “Variant 32272 (trastuzumab FSA; chain A K330T_strat2, chain B G237L_strat2) (antibody)”?
A: C1q Binding (% WT) (C1q (human) [2]): 3 % WT; IIaR-fold (fold change in affinity over wild-type) (FcγRIIaR [3]): 9 fold over WT; IIb-fold (fold change in affinity over wild-type) (FcγRIIb [4]): 164 fold over WT; IIb Selectivity (IIb-Fold/IIaR-Fold) (FcγRIIb [5]): 18

Q: With “Variant 32267 (trastuzumab FSA; chain A S239H_strat1, chain B G330*K_strat1) (antibody)” as the substance, how does the C1q Binding (% WT) (C1q (human) [2]) read?
A: 201 % WT

Q: And the IIaR-fold (fold change in affinity over wild-type) (FcγRIIaR [3])?
A: 25 fold over WT

Q: And the IIb-fold (fold change in affinity over wild-type) (FcγRIIb [4])?
A: 803 fold over WT

Q: And the IIb Selectivity (IIb-Fold/IIaR-Fold) (FcγRIIb [5])?
A: 33

Q: For “Variant 32274 (trastuzumab FSA; chain A P329A_strat2, chain B G237L_strat2) (antibody)”, which C1q Binding (% WT) (C1q (human) [2]) is on record?
A: 2 % WT

Q: What about the IIaR-fold (fold change in affinity over wild-type) (FcγRIIaR [3]) of the same substance?
A: 4 fold over WT

Q: What about the IIb-fold (fold change in affinity over wild-type) (FcγRIIb [4]) of the same substance?
A: 95 fold over WT

Q: What about the IIb Selectivity (IIb-Fold/IIaR-Fold) (FcγRIIb [5]) of the same substance?
A: 26

Q: What does the source list for “anti-CD19 (4G7) full-size antibody, control v12 (symmetrical E233D_G237D_P238D_H268D_P271G_A330R)”?
A: C1q - Variant Binding Relative to WT (%) (C1q (human) [1]): 6.72%; C1q Concentration at Onset of Binding (C1q (human) [1]): 2.84 nM

Q: For “Variant 32278 (trastuzumab FSA; chain A S267A_strat2, chain B G237L_strat2) (antibody)”, which C1q Binding (% WT) (C1q (human) [2]) is on record?
A: 1 % WT

Q: What about the IIaR-fold (fold change in affinity over wild-type) (FcγRIIaR [3]) of the same substance?
A: 9 fold over WT

Q: What about the IIb-fold (fold change in affinity over wild-type) (FcγRIIb [4]) of the same substance?
A: 155 fold over WT

Q: And the IIb Selectivity (IIb-Fold/IIaR-Fold) (FcγRIIb [5])?
A: 17

Q: For “anti-CD40 (Chi Lob 7/4) full-size antibody, control v12 (symmetrical E233D_G237D_P238D_H268D_P271G_A330R)”, which C1q - Variant Binding Relative to WT (%) (C1q (human) [1]) is on record?
A: 0%

Q: Which C1q Binding (% WT) (C1q (human) [2]) does the source give for “Variant 32279 (trastuzumab FSA; chain A S267K_strat2, chain B G237L_strat2) (antibody)” here?
A: 1 % WT

Q: What about the IIaR-fold (fold change in affinity over wild-type) (FcγRIIaR [3]) of the same substance?
A: 3 fold over WT

Q: And the IIb-fold (fold change in affinity over wild-type) (FcγRIIb [4])?
A: 53 fold over WT

Q: And the IIb Selectivity (IIb-Fold/IIaR-Fold) (FcγRIIb [5])?
A: 19

Q: Which results are given for “Variant 32265 (trastuzumab FSA; chain A S239A_strat1, chain B G330*K_strat1) (antibody)”?
A: C1q Binding (% WT) (C1q (human) [2]): 224 % WT; IIaR-fold (fold change in affinity over wild-type) (FcγRIIaR [3]): 36 fold over WT; IIb-fold (fold change in affinity over wild-type) (FcγRIIb [4]): 1120 fold over WT; IIb Selectivity (IIb-Fold/IIaR-Fold) (FcγRIIb [5]): 31

Q: For “Variant 32271 (trastuzumab FSA; chain A G237L_strat2, chain B G237L_strat2) (antibody)”, which C1q Binding (% WT) (C1q (human) [2]) is on record?
A: 3 % WT

Q: What about the IIaR-fold (fold change in affinity over wild-type) (FcγRIIaR [3]) of the same substance?
A: 10 fold over WT

Q: And the IIb-fold (fold change in affinity over wild-type) (FcγRIIb [4])?
A: 251 fold over WT

Q: And the IIb Selectivity (IIb-Fold/IIaR-Fold) (FcγRIIb [5])?
A: 26

Q: With “anti-CD40 (Chi Lob 7/4) full-size antibody, control SELF (S267E_L328F)” as the substance, how does the C1q - Variant Binding Relative to WT (%) (C1q (human) [1]) read?
A: 50.4%

Q: And the C1q Concentration at Onset of Binding (C1q (human) [1])?
A: 0.73 nM

Q: And the EC50 (C1q (human) [1])?
A: 4730 pM

Q: “Variant 32270 (trastuzumab FSA; chain A E272Y_strat2, chain B G237L_strat2) (antibody)” was tested. Which C1q Binding (% WT) (C1q (human) [2]) did it give?
A: -1 % WT

Q: And the IIaR-fold (fold change in affinity over wild-type) (FcγRIIaR [3])?
A: 11 fold over WT

Q: What about the IIb-fold (fold change in affinity over wild-type) (FcγRIIb [4]) of the same substance?
A: 196 fold over WT

Q: And the IIb Selectivity (IIb-Fold/IIaR-Fold) (FcγRIIb [5])?
A: 18

Q: For “Variant 32266 (trastuzumab FSA; chain A S239G_strat1, chain B G330*K_strat1) (antibody)”, which C1q Binding (% WT) (C1q (human) [2]) is on record?
A: 219 % WT

Q: What about the IIaR-fold (fold change in affinity over wild-type) (FcγRIIaR [3]) of the same substance?
A: 30 fold over WT

Q: And the IIb-fold (fold change in affinity over wild-type) (FcγRIIb [4])?
A: 1150 fold over WT

Q: And the IIb Selectivity (IIb-Fold/IIaR-Fold) (FcγRIIb [5])?
A: 38

Q: Which results are given for “Variant 32254 (trastuzumab FSA; chain A S239H_strat1, chain B D329*I_F328*Y_strat1) (antibody)”?
A: C1q Binding (% WT) (C1q (human) [2]): 159 % WT; IIaR-fold (fold change in affinity over wild-type) (FcγRIIaR [3]): 3 fold over WT; IIb-fold (fold change in affinity over wild-type) (FcγRIIb [4]): 159 fold over WT; IIb Selectivity (IIb-Fold/IIaR-Fold) (FcγRIIb [5]): 47

Q: With “anti-HER2 (trastuzumab) full-size antibody, wild-type CH2 (variant 21653)” as the substance, how does the C1q Concentration at Onset of Binding (C1q (human) [1]) read?
A: 0.16 nM

Q: And the EC50 (C1q (human) [1])?
A: 880 pM

Q: For “anti-CD19 (4G7) full-size antibody, control SELF (S267E_L328F)”, which EC50 (C1q (human) [1]) is on record?
A: 360 pM

Q: Which results are given for “Variant 32264 (trastuzumab FSA; chain A L235D_strat1, chain B G330*K_strat1) (antibody)”?
A: C1q Binding (% WT) (C1q (human) [2]): 146 % WT; IIaR-fold (fold change in affinity over wild-type) (FcγRIIaR [3]): 17 fold over WT; IIb-fold (fold change in affinity over wild-type) (FcγRIIb [4]): 557 fold over WT; IIb Selectivity (IIb-Fold/IIaR-Fold) (FcγRIIb [5]): 33

Q: “Variant 32258 (trastuzumab FSA; chain A A237L_strat1, chain B G330*K_strat1) (antibody)” was tested. Which C1q Binding (% WT) (C1q (human) [2]) did it give?
A: 201 % WT

Q: And the IIaR-fold (fold change in affinity over wild-type) (FcγRIIaR [3])?
A: 11 fold over WT

Q: What about the IIb-fold (fold change in affinity over wild-type) (FcγRIIb [4]) of the same substance?
A: 476 fold over WT

Q: And the IIb Selectivity (IIb-Fold/IIaR-Fold) (FcγRIIb [5])?
A: 44

Q: Which C1q Binding (% WT) (C1q (human) [2]) does the source give for “Variant 32262 (trastuzumab FSA; chain A L234T_strat1, chain B G330*K_strat1) (antibody)” here?
A: 210 % WT

Q: And the IIaR-fold (fold change in affinity over wild-type) (FcγRIIaR [3])?
A: 22 fold over WT

Q: What about the IIb-fold (fold change in affinity over wild-type) (FcγRIIb [4]) of the same substance?
A: 697 fold over WT

Q: What about the IIb Selectivity (IIb-Fold/IIaR-Fold) (FcγRIIb [5]) of the same substance?
A: 31

Q: How did the IIaR-Fold (fold affinity over wild-type) (FcγRIIaR [6]) turn out when “variant 16489, one-armed trastuzumab antibody (Scaffold 2), chain A E269K, chain B G236D” was run?
A: 0.41 fold

Q: And the IIb-Fold (fold affinity over wild-type) (FcγRIIb [7])?
A: 0.85 fold

Q: What about the IIb/IIaR Selectivity (FcγRIIb [8]) of the same substance?
A: 2.1

Q: For “anti-CD19 (4G7) full-size antibody, wild-type CH2 (variant 21653)”, which EC50 (C1q (human) [1]) is on record?
A: 310 pM

Q: What does the source list for “anti-CD19 (4G7) full-size antibody, Fc negative variant (L234A_L235A_D265S)”?
A: C1q - Variant Binding Relative to WT (%) (C1q (human) [1]): 0.61%; C1q Concentration at Onset of Binding (C1q (human) [1]): 29.6 nM

Q: With “variant 16571, one-armed trastuzumab antibody (Scaffold 2), chain A E269K, chain B L234F” as the substance, how does the IIaR-Fold (fold affinity over wild-type) (FcγRIIaR [6]) read?
A: 0.42 fold

Q: What about the IIb-Fold (fold affinity over wild-type) (FcγRIIb [7]) of the same substance?
A: 0.4 fold

Q: What about the IIb/IIaR Selectivity (FcγRIIb [8]) of the same substance?
A: 0.97

Q: “Variant 32259 (trastuzumab FSA; chain A A237N_strat1, chain B G330*K_strat1) (antibody)” was tested. Which C1q Binding (% WT) (C1q (human) [2]) did it give?
A: 192 % WT

Q: What about the IIaR-fold (fold change in affinity over wild-type) (FcγRIIaR [3]) of the same substance?
A: 14 fold over WT

Q: What about the IIb-fold (fold change in affinity over wild-type) (FcγRIIb [4]) of the same substance?
A: 452 fold over WT

Q: What about the IIb Selectivity (IIb-Fold/IIaR-Fold) (FcγRIIb [5]) of the same substance?
A: 33

Q: Which IIaR-Fold (fold affinity over wild-type) (FcγRIIaR [6]) does the source give for “variant 16550, one-armed trastuzumab antibody (Scaffold 2), chain A E269K, chain B L234D” here?
A: 0.63 fold

Q: What about the IIb-Fold (fold affinity over wild-type) (FcγRIIb [7]) of the same substance?
A: 0.79 fold

Q: And the IIb/IIaR Selectivity (FcγRIIb [8])?
A: 1.25
